Results reported in patent US20250326840A1 (QURE BIOTECHNOLOGY SHANGHAI, published 2025).
Numbering of substitutions follows the chain as printed.

Assays:
[1] = molecular target: T1, QP098 (cyno SIRPα (I7G9Z7) ECD(E31-R369)-flag-his) (cynomolgus); assay: SPR, Biacore
T1 construct: the construct carries flag and his tags; also called cynoSIRPα (ECD); cynomolgus SIRPα
T1 chain: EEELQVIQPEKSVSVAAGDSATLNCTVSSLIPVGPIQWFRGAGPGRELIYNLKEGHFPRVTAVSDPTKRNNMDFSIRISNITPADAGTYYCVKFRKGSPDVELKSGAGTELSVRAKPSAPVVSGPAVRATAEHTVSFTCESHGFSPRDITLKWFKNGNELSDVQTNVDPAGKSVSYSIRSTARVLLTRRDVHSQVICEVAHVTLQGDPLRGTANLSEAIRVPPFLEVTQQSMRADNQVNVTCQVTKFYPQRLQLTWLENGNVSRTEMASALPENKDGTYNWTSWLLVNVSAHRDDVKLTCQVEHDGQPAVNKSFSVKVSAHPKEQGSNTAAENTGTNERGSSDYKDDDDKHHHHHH

[2] = molecular target: T2, QP271 (rhesus SIRPα1-flag-his T-557-28) (rhesus monkey); assay: SPR, Biacore
T2 construct: also called rhesus monkey SIRPα (QP271); monkeySIRPα1-flag-his
T2 chain: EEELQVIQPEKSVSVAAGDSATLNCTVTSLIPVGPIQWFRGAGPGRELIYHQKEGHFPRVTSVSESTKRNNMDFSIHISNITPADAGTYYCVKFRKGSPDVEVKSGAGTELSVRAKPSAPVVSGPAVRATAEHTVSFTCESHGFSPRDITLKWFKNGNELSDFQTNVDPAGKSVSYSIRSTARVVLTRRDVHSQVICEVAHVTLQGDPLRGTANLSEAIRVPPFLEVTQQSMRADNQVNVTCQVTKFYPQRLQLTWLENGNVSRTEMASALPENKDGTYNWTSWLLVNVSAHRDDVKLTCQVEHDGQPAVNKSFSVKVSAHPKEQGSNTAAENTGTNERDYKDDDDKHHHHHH

[3] = molecular target: T3, QP273 (cynoSIRPα2-flag-his T-557-14) (cynomolgus); assay: SPR, Biacore
T3 construct: also called cynomolgus SIRPα (QP273)
T3 chain: T2 chain with D19E, V27A, A42V, H51S, S62P, E65D, S66P, H77R, V103L

[4] = molecular target: T1, QP098 (cyno SIRPα (I7G9Z7) …); assay: binding ELISA, antigen coated
[5] = molecular target: T4, QP100 (cyno SIRPα (G7PGS8) ECD(E29-R368)-flag-his) (cynomolgus); assay: binding ELISA, antigen coated
T4 construct: the construct carries flag and his tags; also called cynoSIRPα-flag-his; Cynomolgus SIRPα (QP100)
T4 chain: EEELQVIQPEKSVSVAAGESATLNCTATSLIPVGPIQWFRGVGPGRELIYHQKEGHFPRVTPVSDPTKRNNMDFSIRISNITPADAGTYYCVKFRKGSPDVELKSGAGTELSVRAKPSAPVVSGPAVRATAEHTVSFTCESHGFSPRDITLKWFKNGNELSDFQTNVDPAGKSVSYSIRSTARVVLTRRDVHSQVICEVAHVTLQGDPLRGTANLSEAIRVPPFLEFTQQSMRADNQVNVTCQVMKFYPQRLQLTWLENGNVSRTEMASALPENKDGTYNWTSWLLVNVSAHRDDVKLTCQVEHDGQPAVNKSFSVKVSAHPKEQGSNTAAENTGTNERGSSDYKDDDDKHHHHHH

[6] = molecular target: T2, QP271 (rhesus SIRPα1-flag-his T-557-28); assay: binding ELISA, antigen coated
[7] = molecular target: T3, QP273 (cynoSIRPα2-flag-his T-557-14); assay: binding ELISA, antigen coated
QP003 (PDL1-his) = assay: ELISA, QP003 (PDL1-his) captured on coated anti-his, anti-hFc detection; unit from the x axis; the curve is flat at the baseline, the fit is marked ambiguous (~)
QP002 = molecular target: T5, QP002 (biotinylated in the blocking assays, sites not given); assay: blocking ELISA: CD47 FC (QP001) coated, biotin SIRPα-FC (QP002) mixed with the antibody, HRP-streptavidin; blocked ligand: CD47; unit from the x axis Log(Conc.(nM))
T5 construct: also called SIRPα-FC; Biotin-QP002

QP094 (human SIRPα V1 …) = molecular target: T6, QP094 (human SIRPα V1 ECD(E31-R370)-flag-his) (human, UniProt P78324 31-370); assay: SPR, Biacore 8K
T6 construct: the construct carries flag and his tags; also called SIRPαV1-flag-his; SIRPαV1-his (QP094)

QP096 (human SIRPα V2 …) = molecular target: T7, QP096 (human SIRPα V2 ECD(E31-R370)-flag-his) (human); assay: SPR, Biacore 8K
T7 construct: the construct carries flag and his tags; also called SIRPαV2-Flag-his; Human SIRPα V2 (QP096)

[8] = molecular target: SIRPα V7 fusion Fc (mouse IgG2a) (human); assay: ELISA, SIRPα V7-mouse IgG2a Fc coated, anti-hFab detection
[9] = molecular target: SIRPα V2 fusion Fc (mouse IgG2a) (human); assay: ELISA, SIRPα V2-mouse IgG2a Fc coated, anti-hFab detection; unit from the x axis; the curve is flat at the baseline, the fit is marked ambiguous (~)
Chain of SIRPα V2 fusion Fc (mouse IgG2a) (human) (chain, as listed by the source limits assumed): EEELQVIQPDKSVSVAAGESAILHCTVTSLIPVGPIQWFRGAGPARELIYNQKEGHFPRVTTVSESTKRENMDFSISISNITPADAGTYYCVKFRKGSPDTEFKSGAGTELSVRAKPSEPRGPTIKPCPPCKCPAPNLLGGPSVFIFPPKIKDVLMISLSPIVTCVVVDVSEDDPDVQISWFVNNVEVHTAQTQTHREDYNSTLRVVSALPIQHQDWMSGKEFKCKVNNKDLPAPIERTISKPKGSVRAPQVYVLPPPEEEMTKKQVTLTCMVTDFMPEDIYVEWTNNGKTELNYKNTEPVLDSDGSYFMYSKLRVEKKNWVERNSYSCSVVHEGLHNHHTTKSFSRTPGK

T5 sequence (SIRPα-Fc fusion chain, as listed by the source): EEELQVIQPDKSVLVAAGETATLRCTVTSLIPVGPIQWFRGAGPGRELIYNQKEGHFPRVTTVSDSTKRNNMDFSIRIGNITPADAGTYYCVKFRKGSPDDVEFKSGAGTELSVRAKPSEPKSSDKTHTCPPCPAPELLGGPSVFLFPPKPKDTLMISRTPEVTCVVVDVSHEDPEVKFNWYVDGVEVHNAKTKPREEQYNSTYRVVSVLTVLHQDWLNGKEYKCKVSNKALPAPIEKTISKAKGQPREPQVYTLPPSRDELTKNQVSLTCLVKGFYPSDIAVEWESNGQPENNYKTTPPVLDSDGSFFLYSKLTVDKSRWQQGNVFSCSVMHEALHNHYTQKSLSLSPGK
Chain of QP003 (PDL1-his) (chain, as listed by the source limits assumed): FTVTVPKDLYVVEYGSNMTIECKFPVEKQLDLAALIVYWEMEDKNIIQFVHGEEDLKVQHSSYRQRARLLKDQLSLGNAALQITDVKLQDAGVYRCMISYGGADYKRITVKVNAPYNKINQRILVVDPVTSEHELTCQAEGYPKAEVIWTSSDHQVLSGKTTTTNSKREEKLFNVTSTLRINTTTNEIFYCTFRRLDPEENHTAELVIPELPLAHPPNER
Chain of SIRPα V7 fusion Fc (mouse IgG2a) (human) (chain, as listed by the source limits assumed): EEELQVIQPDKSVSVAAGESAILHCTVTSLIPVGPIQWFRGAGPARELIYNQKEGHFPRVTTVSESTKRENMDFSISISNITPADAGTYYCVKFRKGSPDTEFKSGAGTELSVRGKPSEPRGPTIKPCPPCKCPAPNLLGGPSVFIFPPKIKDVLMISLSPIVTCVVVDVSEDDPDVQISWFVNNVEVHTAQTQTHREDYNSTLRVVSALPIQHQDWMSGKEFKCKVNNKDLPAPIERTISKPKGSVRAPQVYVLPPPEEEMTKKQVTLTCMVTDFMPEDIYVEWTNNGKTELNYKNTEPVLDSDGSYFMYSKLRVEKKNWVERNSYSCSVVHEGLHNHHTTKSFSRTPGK

B1: QP256279 (antibody, human IgG4, V domains shown)
VH: QVQLVQSGAEVKKPGASVKVSCKASGYTFTNYWINWVRQAPGQGLEWIAMIDPSDSETHYNQIFKDRATLTTDTSTSTAYMELRSLRSDDTAVYYCAMDYGSLYAMDYWGRGTLVTVSS
VL: DIVLTQSPDSLAVSLGERATINCRASQSVRSSGYNWIFWYQQKPGQPPKLLIYLASNRDSGVPDRFSGSGSGTDFTLTISSLQAEDVAVYYCQHSRELPTFGQGTKLEIK
notes: Human IgG4 heavy constant region and kappa CL
Kd [1]: 1.56 nM
Kd [2]: 0.441 nM
Kd [3]: 0.918 nM
EC50 [4]: 0.619 ng/mL
EC50 [5]: 0.558 ng/mL
EC50 [6]: 0.601 ng/mL
EC50 [7]: 0.721 ng/mL

B2: QP32700279 (antibody, human IgG1, kappa, L234A L235A, V domains shown)
VH: B1 VH
VL: DIVLTQSPDSLAVSLGERATINCRASQSVRSSGYNWIFWYQQKPGQPPKLLIYLASNRDSGVPDRFSGSGSGTDFTLTISSLQAEDVAVYYCQHSRELPTFGQGTKLEIKR
notes: also called SIRPα monoclonal antibody CHO71
EC50 (QP003 (PDL1-his)): ~0.628 pM
IC50 (QP002): 0.208 nM

B3: QP026249 (KWAR23 analog) (antibody, human IgG4 S228P, kappa)
heavy: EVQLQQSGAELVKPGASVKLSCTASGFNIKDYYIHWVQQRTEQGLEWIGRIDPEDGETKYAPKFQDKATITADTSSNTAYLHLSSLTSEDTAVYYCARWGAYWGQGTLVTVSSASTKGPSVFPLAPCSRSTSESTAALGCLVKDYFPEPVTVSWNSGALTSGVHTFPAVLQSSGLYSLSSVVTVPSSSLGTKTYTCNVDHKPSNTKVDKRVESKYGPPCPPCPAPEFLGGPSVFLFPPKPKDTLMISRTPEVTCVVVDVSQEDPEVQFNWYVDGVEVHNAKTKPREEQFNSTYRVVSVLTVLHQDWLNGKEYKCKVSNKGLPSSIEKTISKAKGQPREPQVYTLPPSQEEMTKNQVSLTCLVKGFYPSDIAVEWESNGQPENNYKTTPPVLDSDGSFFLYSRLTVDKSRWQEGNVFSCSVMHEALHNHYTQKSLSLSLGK
light: QIVLTQSPAIMSASPGEKVTLTCSASSSVSSSYLYWYQQKPGSSPKLWIYSTSNLASGVPARFSGSGSGTSYSLTISSMEAEDAASYFCHQWSSYPRTFGAGTKLELKRTVAAPSVFIFPPSDEQLKSGTASVVCLLNNFYPREAKVQWKVDNALQSGNSQESVTEQDSKDSTYSLSSTLTLSKADYEKHKVYACEVTHQGLSSPVTKSFNRGEC
notes: also called KAWA23 analog; control antibody KWAR23 (QP026249), human IgG4
Kd (QP094 (human SIRPα V1 …)): 4.7 nM
koff (QP094 (human SIRPα V1 …)): 0.00386 s⁻¹
kon (QP094 (human SIRPα V1 …)): 822000 M⁻¹ s⁻¹
Kd (QP096 (human SIRPα V2 …)): 17.5 nM
koff (QP096 (human SIRPα V2 …)): 0.0242 s⁻¹
kon (QP096 (human SIRPα V2 …)): 1.38e+06 M⁻¹ s⁻¹

B4: QP250251 (18D5 analog) (antibody, human IgG4 S228P, kappa, V domains shown)
VH: QVQLQQPGAELVRPGSSVKLSCKASGYTFTSYWVHWVKQRPIQGLEWIGNIDPSDSDTHYNQKFKDKASLTVDKSSSTAYMQLSSLTFEDSAVYYCVRGGTGTMAWFAYWGQGTLVTVSA
VL: DVVMTQTPLSLPVSLGDQASISCRSSQSLVHSYGNTYLYWYLQKPGQSPKLLIYRVSNRFSGVPDRFSGSGSGTDFTLKISRVEAEDLGVYFCFQGTHVPYTFGSGTKLEIKR
notes: also called SIRPα antibody 18D5 from OSE
binding result [8]: no binding (tested: about 67 nM (last point at log 1.8))
EC50 [9]: ~0.0554 nM
